Patent publication JP2014141434A (dated 2014)

Key:
Assay in all cases: flow cytometry, transfected HEK293 cells, 10 μg/mL
[1] = biological target: T1, N末端FLAG−tag付加型ヒトROBO4細胞外領域ドメイン欠損体 hROBO4−132 (human, UniProt Q8WZ75 132-1007)
T1 construct: On HEK293 cells; also called pCI−FLAG−hROBO4−132; pCI−hROBO4−132
T1 sequence: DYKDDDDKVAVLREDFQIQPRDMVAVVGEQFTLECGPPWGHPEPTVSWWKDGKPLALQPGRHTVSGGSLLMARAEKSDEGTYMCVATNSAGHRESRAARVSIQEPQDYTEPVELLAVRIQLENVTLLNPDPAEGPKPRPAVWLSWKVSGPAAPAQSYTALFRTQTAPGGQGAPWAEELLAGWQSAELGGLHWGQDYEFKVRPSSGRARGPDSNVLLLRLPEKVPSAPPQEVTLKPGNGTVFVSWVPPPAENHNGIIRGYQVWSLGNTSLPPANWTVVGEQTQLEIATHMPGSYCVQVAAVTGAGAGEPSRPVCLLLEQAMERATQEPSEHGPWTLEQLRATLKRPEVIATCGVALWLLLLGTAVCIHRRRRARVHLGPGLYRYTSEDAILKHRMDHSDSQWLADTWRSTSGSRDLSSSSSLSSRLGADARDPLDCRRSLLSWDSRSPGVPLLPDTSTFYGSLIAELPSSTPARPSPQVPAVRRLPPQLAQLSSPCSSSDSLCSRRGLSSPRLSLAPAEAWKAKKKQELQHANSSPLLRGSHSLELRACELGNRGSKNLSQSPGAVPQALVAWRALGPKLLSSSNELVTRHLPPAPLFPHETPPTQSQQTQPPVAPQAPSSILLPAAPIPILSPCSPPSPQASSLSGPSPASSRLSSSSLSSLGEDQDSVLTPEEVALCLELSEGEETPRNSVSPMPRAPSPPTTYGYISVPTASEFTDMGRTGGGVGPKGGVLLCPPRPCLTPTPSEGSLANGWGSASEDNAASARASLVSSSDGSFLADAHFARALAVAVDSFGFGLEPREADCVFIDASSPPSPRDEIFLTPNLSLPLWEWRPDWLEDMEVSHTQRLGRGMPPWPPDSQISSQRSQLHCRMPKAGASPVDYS

[2] = biological target: T2, N末端FLAG−tag付加型全長ヒトROBO4 hROBO4−28 (human, UniProt Q8WZ75 28-1007)
T2 construct: On HEK293 cells; also called pCI−FLAG−hROBO4−28
T2 sequence: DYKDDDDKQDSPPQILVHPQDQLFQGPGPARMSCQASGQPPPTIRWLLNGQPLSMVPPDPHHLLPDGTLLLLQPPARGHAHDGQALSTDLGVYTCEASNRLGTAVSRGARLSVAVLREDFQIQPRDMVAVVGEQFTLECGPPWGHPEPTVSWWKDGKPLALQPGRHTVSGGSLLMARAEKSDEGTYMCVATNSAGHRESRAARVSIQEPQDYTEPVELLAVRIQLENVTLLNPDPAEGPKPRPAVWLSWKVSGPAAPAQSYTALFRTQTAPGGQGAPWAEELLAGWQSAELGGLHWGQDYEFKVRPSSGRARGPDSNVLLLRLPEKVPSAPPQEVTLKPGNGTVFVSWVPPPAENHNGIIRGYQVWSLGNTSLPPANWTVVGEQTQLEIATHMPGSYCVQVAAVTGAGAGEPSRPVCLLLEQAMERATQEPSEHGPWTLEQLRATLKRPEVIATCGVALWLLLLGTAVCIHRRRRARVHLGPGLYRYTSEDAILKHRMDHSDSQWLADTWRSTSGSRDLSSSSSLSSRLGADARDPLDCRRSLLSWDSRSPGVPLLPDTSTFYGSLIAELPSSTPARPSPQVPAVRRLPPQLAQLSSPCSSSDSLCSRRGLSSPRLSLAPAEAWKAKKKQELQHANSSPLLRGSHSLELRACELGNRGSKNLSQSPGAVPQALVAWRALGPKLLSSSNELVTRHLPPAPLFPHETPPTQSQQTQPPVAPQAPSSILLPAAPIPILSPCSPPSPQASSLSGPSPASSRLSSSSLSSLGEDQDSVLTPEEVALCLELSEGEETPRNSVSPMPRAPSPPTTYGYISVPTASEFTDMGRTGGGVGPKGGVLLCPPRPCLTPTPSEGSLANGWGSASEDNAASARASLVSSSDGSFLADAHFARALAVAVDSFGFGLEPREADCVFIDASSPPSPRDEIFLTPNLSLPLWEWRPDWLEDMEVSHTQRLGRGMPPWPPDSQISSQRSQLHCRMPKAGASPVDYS

[3] = biological target: T3, N末端FLAG−tag付加型カニクイザルROBO4 cynoROBO4−2 (cynomolgus monkey, UniProt Q8WZ75 28-1007 (human entry))
T3 construct: also called pCI−FLAG−cynoROBO4−2
T3 chain: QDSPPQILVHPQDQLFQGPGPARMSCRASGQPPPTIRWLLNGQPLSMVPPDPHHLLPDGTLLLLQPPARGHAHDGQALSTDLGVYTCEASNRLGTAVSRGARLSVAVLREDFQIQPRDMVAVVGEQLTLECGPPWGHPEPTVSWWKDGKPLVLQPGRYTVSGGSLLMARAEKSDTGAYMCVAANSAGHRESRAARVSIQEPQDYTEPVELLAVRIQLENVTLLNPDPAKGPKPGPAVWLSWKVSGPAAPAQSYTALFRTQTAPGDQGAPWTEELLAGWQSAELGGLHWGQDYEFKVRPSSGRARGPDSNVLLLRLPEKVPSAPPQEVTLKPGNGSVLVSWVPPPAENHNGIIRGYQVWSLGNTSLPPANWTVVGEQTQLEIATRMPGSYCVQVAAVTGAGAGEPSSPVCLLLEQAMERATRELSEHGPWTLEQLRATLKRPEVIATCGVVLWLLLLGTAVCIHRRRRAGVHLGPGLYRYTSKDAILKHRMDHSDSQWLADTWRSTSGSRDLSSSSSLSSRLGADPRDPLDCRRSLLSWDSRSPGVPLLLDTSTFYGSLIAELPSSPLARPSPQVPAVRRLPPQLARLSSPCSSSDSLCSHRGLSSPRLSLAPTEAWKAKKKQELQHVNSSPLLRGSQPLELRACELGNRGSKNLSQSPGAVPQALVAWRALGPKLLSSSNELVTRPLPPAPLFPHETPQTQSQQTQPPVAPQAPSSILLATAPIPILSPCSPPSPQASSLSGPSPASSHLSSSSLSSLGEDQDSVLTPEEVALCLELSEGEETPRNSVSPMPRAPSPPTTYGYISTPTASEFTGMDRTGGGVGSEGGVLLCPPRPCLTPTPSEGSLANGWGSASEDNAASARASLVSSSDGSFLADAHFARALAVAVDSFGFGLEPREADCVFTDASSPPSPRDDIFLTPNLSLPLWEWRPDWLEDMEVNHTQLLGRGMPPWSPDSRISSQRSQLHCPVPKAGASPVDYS

Measured: binding result

B1: 抗ROBO4マウスモノクローナル抗体 MAb1 (antibody, V domains shown)
VH: EVQLVESGGGLVKPGGSLKLSCAASGFTFSTYAMSWVRQTPEKRLEWVATISNGGTYTYYPDSVKGRFTISRDNAENTLYLQMSSLRSEDTAMYFCARLIYYDYLDYWGHGTTLTVSS
VL: DAVMTQTPLSLPVSLGDQASISCRSSQSLENSNGNTYLNWYFQKPGQSPQLLIYRVSNRFSGVLDRFSGSGSGTDFTLKISRVEAEDFGVYFCLQVTHVPWTFGGGTKLEIKR
notes: Mouse IgG1 (gamma 1) / kappa from a hybridoma; The constant regions are not in the listing; also called MAb1
binds: all assays above
